The results in this text go back to patent publication EP2341079A1 (Institut Pasteur, dated 2011).

The term Kd denotes the equilibrium constant for the complex coming apart. Read a low Kd as higher affinity. One may read the koff as a measure of how fast the partners let go of each other. The term kon denotes a measure of how fast the partners come together. Low values mean slow association, high ones fast association.

One assay concerns the target streptavidin (UniProt P22629 37-163, limits assumed). Briefly: ELISA (data not shown).
Another assay deals with neutravidin (UniProt P02701 25-152). The experiment in a line: ELISA (data not shown). On the technique in general: ELISA stands for enzyme-linked immunosorbent assay.
Assay [1] concerns the target T1, hIgG (IgG pool from human serum containing hIgG1, hIgG2, hIgG3, hIgG4; Fluka reference number 56834).
T1 construct: Polyclonal mixture from human serum; also called human IgG; Immunoglobulin G from human serum
The experiment in a line: SPR (BIAcore 3000), hIgG on CM5 chip, binder injected, 1:1 global fit.

Assay [2] concerns the target T2, hIgG1 (Sigma-Aldrich reference number I5029) (human, UniProt P01857-1 1-330 = IgG part).
T2 construct: Purified subclass, bought; also called Human IgG1; human IgG1 subclass
Briefly: SPR, hIgG1 immobilised at low density, C3 injected 16-1000 nM, global fit (Fig. 6).

T2 sequence (P01857 other isoform, or with tags, fused parts or gaps): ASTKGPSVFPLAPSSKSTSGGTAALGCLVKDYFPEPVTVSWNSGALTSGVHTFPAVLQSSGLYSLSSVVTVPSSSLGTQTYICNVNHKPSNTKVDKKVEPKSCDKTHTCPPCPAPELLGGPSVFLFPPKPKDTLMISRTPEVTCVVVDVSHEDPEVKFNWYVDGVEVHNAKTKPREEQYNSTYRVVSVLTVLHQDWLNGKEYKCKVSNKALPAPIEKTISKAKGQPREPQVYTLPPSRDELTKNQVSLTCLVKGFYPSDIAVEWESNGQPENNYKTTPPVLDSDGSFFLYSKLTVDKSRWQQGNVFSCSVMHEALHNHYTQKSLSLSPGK
streptavidin, sequence (P22629 37-163 limits assumed): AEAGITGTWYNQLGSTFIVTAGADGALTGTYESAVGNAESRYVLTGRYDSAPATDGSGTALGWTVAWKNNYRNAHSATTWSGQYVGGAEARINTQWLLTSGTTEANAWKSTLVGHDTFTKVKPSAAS
neutravidin, sequence (P02701 25-152): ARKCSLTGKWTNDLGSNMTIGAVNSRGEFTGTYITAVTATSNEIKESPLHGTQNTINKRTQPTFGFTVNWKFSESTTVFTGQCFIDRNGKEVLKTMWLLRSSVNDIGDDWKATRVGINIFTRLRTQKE

B1: C3 binder (designed binder)
chain: SVKVKFLLNGEEKEVDTSKIRDVCRQGKNVKFLYNDNGKYGAGNVDEKDAPKELLDMLARAEREKK
notes: Sac7d variant made with a His-tag in E. coli; monomeric by gel filtration; Used free, biotinylated on a streptavidin chip, labelled with AlexaFluor 680, or NHS-coupled to agarose, as said under assay; also called clone C3; not shown: RGS-(His)6 tag from vector pFP1001 (pQE30 derivative)
As to B1, the binding result with streptavidin and in the assay with neutravidin was “no binding” throughout. In addition, the Kd in assay [1] turned out to be 74 nM; in assay [2] it was 94 nM. Also, the koff turned out to be 0.066 s⁻¹ in assay [1] and 0.051 s⁻¹ in assay [2]. The figures for the kon in assay [1] and in assay [2] were 890000 M⁻¹ s⁻¹ and 540000 M⁻¹ s⁻¹, respectively.
